Test results from US20200297863A1, “ANTI-EGFR ANTIBODY DRUG CONJUGATES (ADC) AND USES THEREOF” (AbbVie Inc., priority 2017, published 2020).

Columns and labels:
LoVo = LoVo colorectal adenocarcinoma xenograft model; format: in vivo, mice; conditions: administered at a much higher dose than the PBD conjugates
Procedure: Numbers in parentheses represent dose in mg/kg. Arrows represent days of dosing.
Both conjugates were administered at 0.5mg/kg on a q7dx6 regimen (where mice were dosed every 7 days for 6 weeks).

CTG-0162 = CTG-0162 patient-derived NSCLC xenograft model; format: in vivo; conditions: dosed ten-fold higher than the PBD ADCs
Description: (§1) Numbers in parentheses represent dose in mg/kg, and arrows represent days of dosing.

CTG-9786 = CTG-9786 patient-derived head and neck cancer xenograft model; format: in vivo; conditions: much higher dose than the PBD ADCs
Description: as §1

B1: AbA-MMAE: AbA conjugated to monomethyl auristatin E via a cleavable valine-citrulline (VC) linker; DAR about 3 (conjugate, chains of the INN, looked up)
VH: EVQLQESGPGLVKPSQTLSLTCTVSGYSISRDFAWNWIRQPPGKGLEWMGYISYNGNTRYQPSLKSRITISRDTSKNQFFLKLNSVTAADTATYYCVTASRGFPYWGQGTLVTVSS
VL: DIQMTQSPSSMSVSVGDRVTITCHSSQDINSNIGWLQQKPGKSFKGLIYHGTNLDDGVPSRFSGSGSGTDYTLTISSLQPEDFATYYCVQYAQFPWTFGGGTKLEIK
modifications: vc-MMAE payload, DAR about 3
tumor response (LoVo): active in this model, with activity similar to that observed with Ab1(S239C)-PBD | inhibition of tumor growth (CTG-0162): less efficacious | inhibition of tumor growth (CTG-9786): effective, but required a much higher dose
